This note sets out measurements from PMC12421958, “Dual regulatory role of cyclic di-GMP via the DgcY/HhmR complex in salt response of Halomonas hydrothermalis Y2” (mBio, 2025).

The target in test [1] is DgcY_(202–406) (Halomonas hydrothermalis Y2). Briefly: MST; His-tagged protein labelled with Red-tris-NTA, ligand in twofold serial dilutions, PBS-T buffer, 25°C; no c-di-GMP.
The target is the same in test [2].
The target is the same in test [3]. Briefly: MST; as a3, buffer containing 0.5 µM c-di-GMP.
Test [4] shares this target. The source holds these as a separate data set.
The target is the same in test [5]. Briefly: MST; as a3, buffer containing 2.5 µM c-di-GMP.
Test [6] has the same target. Briefly: MST; as a3, buffer containing 15 µM c-di-GMP.
Test [7] concerns the target T1, DgcY202–406.
T1 construct: gene dgcY; intracellular fragment 202-406 (helical domain 203-221 + GGDEF 222-406) of 406-residue protein, TM domain removed; pET24a, E. coli BL21(DE3), His-tag, labelled by RED-tris-NTA for MST
As to the kind of experiment: microscale thermophoresis (MST). The test is classed as binding, Vreelandella hydrothermalis. The conditions noted are these: 25 °C, PBS-T; without HhmR; His-tag protein labelled with RED-tris-NTA. For orientation: MST reads how a fluorescent partner responds to local heating, with and without ligand.

Test [8] has as its target T2, DgcY222–406.
T2 construct: gene dgcY; GGDEF domain 222-406 only, TM and helical (HD) regions removed; pET24a, E. coli BL21(DE3), His-tag
As to the kind of experiment: microscale thermophoresis (MST). It is filed as binding, Vreelandella hydrothermalis. As to conditions: 25 °C, PBS-T; without HhmR; His-tag protein labelled with RED-tris-NTA.

pKd: −log10 of the molar value.

What is called pKd is the negative decadic logarithm of the Kd, by convention in mol/L. High values mean a low Kd, low ones a high Kd.

Regarding “HhmR_(90–305)^Q240D (domain or fragment)”, the pKd in test [1] is 6.24.
HhmR (natural protein) gave a c-di-GMP made by 10 µM DgcY202-406 with 15 µM HhmR, HPLC, 37°C, 2 to 8 h (with HhmR 9.47 µM at 3 h and 25.50 µM at 8 h; without HhmR 12.41 and 31.38 µM) in test [2] of 25.5 µM. The pKd in test [3] was 6.98; in test [5], 7.04; in test [1], 5.05; in test [6] it was 7.47. In test [4], this molecule came in with a c-di-GMP made by DgcY202-406 with HhmR and 15 µM added c-di-GMP, HPLC, 37°C, 8 h (38 µM without added c-di-GMP) of 30 µM.
As to HhmR_(90–305) (domain or fragment), the pKd in test [1] was 7.28.
For `Nc1nc2c(ncn2[C@@H]2O[C@@H]3COP(=O)(O)O[C@H]4[C@@H](O)[C@H](n5cnc6c(=O)[nH]c(N)nc65)O[C@@H]4COP(=O)(O)O[C@H]3[C@H]2O)c(=O)[nH]1` [c-di-GMP], the pKd in test [7] was 4.27; in test [8], 2.93.
